Data taken from US8008547B2, “Glyphosate-N-acetyltransferase (GAT) genes” (E.I. duPont de Nemours, priority 2000, dated 2011).
Positions count from the first letter of the chain named.

B1: SEQ ID NO: 355: GAT polypeptide (protein)
chain: MIEVKPINAEDTYEIRHRILRPNQPLEACKYETDLLGGTFHLGGYYQGKLISTASFHQAGHSELEGQKQYQLRGMATLEGYRERKAGSTLIRHAEELLRKKGADLLWCNARISASGYYKKLGFSEQGGVYDIPPIGPHILMYKKLT
modifications: 2H3
notes: GAT polypeptide
B2: SEQ ID NO: 333: GAT polypeptide (protein)
chain: MIEVKPINAEDTYEIRHRILRPNQPLEACKYETDLLRGAFHLGGYYRGKLISIVSFHQAEHPELEGQKQYQLRGMATLEGYREQKAGSTLIRHAEELLRKKGADLLWCNARTSASGYYKKLGFSEQGEVYDTPPAGPHILMYTKLT
modifications: 15_3F10
notes: GAT polypeptide
B3: SEQ ID NO: 266: GAT polypeptide (protein)
chain: B2 chain with I51V, V54A, A135T, T143K
modifications: 14_2C1
notes: GAT polypeptide
B4: SEQ ID NO: 339: GAT polypeptide (protein)
chain: B2 chain with R37G, A39T, V54A, G80E, K100R, T132I, A135V, T143K
modifications: 15_9F6
notes: GAT polypeptide
B5: SEQ ID NO: 338: GAT polypeptide (protein)
chain: B2 chain with I51V, V54A, G80E, E128K, T132I, A135V, T143K
modifications: 15_6G11
notes: GAT polypeptide
B6: SEQ ID NO: 349: GAT polypeptide (protein)
chain: B1 chain with T39A, T53I, G60E, R84Q, I112T, A114V, G128E
modifications: 21E11
notes: GAT polypeptide
B7: SEQ ID NO: 353: GAT polypeptide (protein)
chain: B1 chain with Q47R, T53I, Q58N, G60E, R84Q, I112T, K119E, G128E, T146A
modifications: 24E7
notes: GAT polypeptide
B8: SEQ ID NO: 334: GAT polypeptide (protein)
chain: B2 chain with R37G, A39T, I51V, V54A, G80E, T132I, A135V, T143K
modifications: 15_3G11
notes: GAT polypeptide
B9: SEQ ID NO: 351: GAT polypeptide (protein)
chain: B1 chain with Q47R, G48D, K49R, T53I, G60E, R84Q, I112T, A114V, G128E
modifications: 24C1
notes: GAT polypeptide
B10: SEQ ID NO: 336: GAT polypeptide (protein)
chain: B2 chain with R37G, A39T, I51V, V54A, G80E, T132I, A135T, T143K
modifications: 15_4H3
notes: GAT polypeptide
B11: SEQ ID NO: 356: GAT polypeptide (protein)
chain: B1 chain with K30M, Y31F, T39A, T53I, G60E, R84Q, I112T, A114V, G128E
modifications: 30G8
notes: GAT polypeptide
B12: SEQ ID NO: 337: GAT polypeptide (protein)
chain: B2 chain with R37G, A39T, V54A, G80E, T132I, A135T, T143K
modifications: 15_6D3
notes: GAT polypeptide
B13: SEQ ID NO: 344: GAT polypeptide (protein)
chain: B1 chain with Q47R, T53I, Q58K, G60E, R84Q, I112T, K119E, G128E, T146A
modifications: 18D6
notes: GAT polypeptide
B14: SEQ ID NO: 265: GAT polypeptide (protein)
chain: B2 chain with R37G, G38S, A39T, V54A, H57N, A135V, T143K
modifications: 14_2A5
notes: GAT polypeptide
B15: SEQ ID NO: 264: GAT polypeptide (protein)
chain: B2 chain with I51V, V54A, K68R, T132I, A135T, T143K
modifications: 13_12G6
notes: GAT polypeptide
B16: SEQ ID NO: 348: GAT polypeptide (protein)
chain: B1 chain with K30M, Q47R, T53I, G60E, R84Q, I112T, A114V, K119E, G128E
modifications: 20F2
notes: GAT polypeptide
B17: SEQ ID NO: 340: GAT polypeptide (protein)
chain: MIEVKPINAEDTYEIRHRILRPNQPLEACKYETDLLGGTFHLGGYYRGKLISIASFHKAEHSELEGEEQYQLRGMATLEGYREQKAGSTLIRYAEELLRKKGADLLWCNARTSVSGYYKKLGFSEQGEVYDIPPIGPHILMYKKLT
modifications: 15F5
notes: GAT polypeptide
B18: SEQ ID NO: 345: GAT polypeptide (protein)
chain: B17 chain with S52C, K58Q, E67Q, E68K, Y93H, S115R, K119E, E128G, T146A
modifications: 19C6
notes: GAT polypeptide
B19: SEQ ID NO: 342: GAT polypeptide (protein)
chain: B17 chain with E3D, R47Q, K58Q, E67Q, E68K, Y93H, K119E
modifications: 16H3
notes: GAT polypeptide
B20: SEQ ID NO: 341: GAT polypeptide (protein)
chain: B17 chain with K30M, F40L, R47Q, E63G, Y93H, K119E
modifications: 16A1
notes: GAT polypeptide
B21: SEQ ID NO: 347: GAT polypeptide (protein)
chain: B1 chain with K30M, T53I, Q58N, G60E, R84Q, A103V, I112T, A114V, V129I, T146A
modifications: 20A12
notes: GAT polypeptide
B22: SEQ ID NO: 343: GAT polypeptide (protein)
chain: B17 chain with N8S, K30M, T39A, R47Q, K58Q, E67Q, E68K, Y93H, K119E
modifications: 17C12
notes: GAT polypeptide
B23: SEQ ID NO: 335: GAT polypeptide (protein)
chain: MIEVKPINAEDTYKIRHRILRPNQPLEACMYETDLLGGTFHLGGYYRGKLVSIASFNQAEHPELEGQKQYQLRGMATLEGYREQKAGSTLIRHAEALLRKKGADLLWCNARTSASGYYKKLGFSEQGEVYDIPPTGPHILMYKKLT
modifications: 15_4F11
notes: GAT polypeptide
B24: SEQ ID NO: 352: GAT polypeptide (protein)
chain: B1 chain with K30M, Q47R, T53I, G60E, R84Q, A114V, T146A
modifications: 24C6
notes: GAT polypeptide
B25: SEQ ID NO: 350: GAT polypeptide (protein)
chain: B17 chain with K30M, R47Q, E67Q, E68K, Y93H, V114A, K119E, T146A
modifications: 23H11
notes: GAT polypeptide
B26: SEQ ID NO: 354: GAT polypeptide (protein)
chain: B17 chain with K30M, G48D, K49R, K58Q, E67Q, E68K, Y93H, V114A, K119E
modifications: 2_8C3
notes: GAT polypeptide
B27: SEQ ID NO: 346: GAT polypeptide (protein)
chain: B17 chain with R18C, K30M, R47Q, E67Q, E68K, Y93H
modifications: 19D5
notes: GAT polypeptide

Assay: Standard protocol for determination of kcat and KM (continuous spectrophotometric assay, Acetyl CoA hydrolysis at 235 nm)
Assay type: biochemical
Conditions: purified protein; about 23° C.; 20 mM HEPES pH 6.8, 10% ethylene glycol, 0.2 mM acetyl CoA
Procedure, shortened: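 KM from initial rates over 0.125–10 mM glyphosate, fitted by Lineweaver-Burke transformation of Michaelis-Menten; kcat/KM computed as kcat divided by KM. Continuous spectrophotometric read of acetyl-CoA hydrolysis at 235 nm.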

| Molecule | Kcat [s⁻¹] |
| --- | --- |
| B1 | 0.268 |
| B2 | 0.812 |
| B3 | 2.223 |
| B4 | 0.993 |
| B5 | 0.615 |
| B6 | 0.0183 |
| B7 | 0.148 |
| B8 | 1.19 |
| B9 | 0.0283 |
| B10 | 1.56 |
| B11 | 0.17 |
| B12 | 1.43 |
| B13 | 0.16 |
| B14 | 4.68 |
| B15 | 0.868 |
| B16 | 0.065 |
| B17 | 0.0083 |
| B18 | 0.0367 |
| B19 | 0.0583 |
| B20 | 0.173 |
| B21 | 0.0467 |
| B22 | 0.0533 |
| B23 | 1.34 |
| B24 | 0.045 |
| B25 | 0.118 |
| B26 | 0.413 |
| B27 | 0.0367 |

Same assay, conditions: purified protein; about 23° C.; pH 6.8; 0.2 mM acetyl CoA; glyphosate 0.125 to 10 mM

| Molecule | Km [µM] |
| --- | --- |
| B1 | 900 |
| B2 | 900 |
| B3 | 3100 |
| B4 | 1100 |
| B5 | 900 |
| B6 | 700 |
| B7 | 900 |
| B8 | 1200 |
| B9 | 900 |
| B10 | 1000 |
| B11 | 1600 |
| B12 | 1400 |
| B13 | 1200 |
| B14 | 1600 |
| B15 | 1200 |
| B16 | 1900 |
| B17 | 2900 |
| B18 | 1100 |
| B19 | 2900 |
| B20 | 2900 |
| B21 | 1100 |
| B22 | 1400 |
| B23 | 900 |
| B24 | 1300 |
| B25 | 2200 |
| B26 | 1500 |
| B27 | 1700 |
